One data set has as its system miR-100. Nature of the data set: miR-100 level by quantitative stem-loop RT-PCR after pre-miR/anti-miR transfection. Format: cell-based, human. Conditions: 24 h following transfection; vs irrelevant-sequence controls; FIG. 2. The source says: To verify the expression of miR-100 in pure cell populations of the vascular wall, stem-loop RT-PCR was used for total RNA-isolates from cultured human endothelial cells (HUVECs) and human aortic vascular smooth muscle cells.
MicoRNA expression was validated by quantitative stem-loop PCR technology (TaqMan MicroRNA Assays, Applied Biosystems, Foster City, Calif.). The use of target-specific reverse transcription primers and TaqMan hybridization probes allows the specific detection of mature microRNAs. MicroRNA expression was normalized to the expression of the small RNAs rnu19 and rnu48.
miR-100 was strongly expressed in both cell types. To investigate a potential role of miR-100 for angiogenesis, miR-100 was overexpressed and silenced in these cell types by transfecting specific miR-100 precursors (pre-miRs) or antisense-molecules (anti-miRs), respectively. […] Pre- and anti-miRs with an irrelevant nucleotide sequence served as negative controls. There was no significant difference in cellular viability following transfection with the different compounds.
For transfection with pre-miR microRNA precursor molecules or anti-miRmiRNA inhibitors (all Ambion), cells were cultured to 70% confluence and transfected with 8nM pre-miR-100 or anti-miR-100 oligonucleotides using Lipofectamin RNAiMax (invitrogen) according to the manufacturers instructions. […]

Data set [1] concerns endothelial cells. In words: planar matrigel assay, endothelial network formation. The class given is cell-based, human.
Data set [2] concerns endothelial cells. In words: three-dimensional spheroid culture assay, endothelial sprouting. The class given is cell-based, human.
Data set [3] concerns endothelial cells. In words: flow cytometric quantification of Annexin V-staining (apoptosis). The class given is cell-based, human. The note with it: compared to irrelevant control sequence, FIG. 3. The source says:
(§1) To assess whether the observed differences were secondary to effects on cellular viability, endothelial cell apoptosis and proliferation following miR-100 modulation was checked. […] DNA-synthesis rate was further analyzed by measuring BrdU-Incorporation, which correlates well with cellular proliferation.
(In general: Flow cytometry measures light scatter and fluorescence of single cells or particles in a stream.)

Data set [4] concerns endothelial cells. In words: BrdU-Incorporation (proliferation), endothelial cells. Format: cell-based, human. Conditions: FIG. 3.
Text: as §1

For data set [5], the system named is vascular smooth muscle cells. In words: BrdU-Incorporation (proliferation), smooth muscle cells. The class given is cell-based, human. Conditions: FIG. 4.
The test system of a further data set is mTOR. In words: mTOR expression in endothelial cells after miR-100 modulation. The class given is cell-based, human. Conditions: FIG. 5. The method, then: The binding site of miR-100 in the 3′-UTR of mTOR is shown in (FIG. 6.) In FIG. 6 the sequence designated hsa-miR-100 corresponds to SEQ ID NO:1 and the sequence having the designation mTOR 3′UTR corresponds to SEQ ID NO:7.
(§2) For transfection with pre-miR microRNA precursor molecules or anti-miRmiRNA inhibitors (all Ambion), cells were cultured to 70% confluence and transfected with 8nM pre-miR-100 or anti-miR-100 oligonucleotides using Lipofectamin RNAiMax (invitrogen) according to the manufacturers instructions. For transfection of HEK293 cells with mTOR plasmids, 2 μg DNA per 3×10E5 cells was transfected with Fugene 6 transfection reagent (Roche). For double transfection of plasmids with miRNA-precursors and inhibitors, pre- and anti-miRs were added to the plasmid/Fugene transfection mix in the same final concentrations as stated above. mTOR (Acc. NM004958) full length (SKU SC124066) and ORF-constructs (SKU RC220457) were obtained from the Origene collection (Origene, Rockville, Md.).

Another data set concerns mTOR (FRAP1-gene). Nature of the data set: microarray based gene expression analysis of endothelial cells following miR-100 overexpression (mTOR). The class given is cell-based, human. The source says: Using a combination of bioinformatic prediction algorithms and microarray based gene expression analysis of endothelial cells following miR-100 overexpression, it was searched for potential target genes of miR-100 that could be responsible for the observed effects.

The next data set relates to HEK293 cells. In words: HEK cell proliferation, rescue-experiment with mTOR plasmids. Conditions: 8nM oligonucleotide; FIG. 7. Format: cell-based, human. On the procedure: To investigate if the repression of mTOR was responsible for the observed attenuation of cellular proliferation by miR-100, a rescue-experiment was performed by transfecting mTOR-coding plasmids in combination with pre-miR-100.
as §2
Due to the large plasmid size of mTOR, it was not possible to achieve a sufficient transfection rate in endothelial cells without procedure-related toxic effects and therefore the easily transfected HEK-cells were chosen as a culture model, where the miR-100 effects on proliferation seen in endothelial cells could be reproduced (FIG. 7).

Another data set relates to E-Selectin (SELE). In words: Agilent microarray after miR-100 overexpression in endothelial cells, E-Selectin. Format: cell-based, human. The note with it: 48 hours after transfection vs control oligonucleotide, FIG. 12. On the procedure: (§3) After discovering the high baseline expression of miR-100 in endothelial cells and its downregulation in response to vascular injury and ischemia, the function of this microRNA in endothelial cells (EC) was investigated. Therefore, miR-100 was overexpressed in EC by transfecting a synthetic miR-100 precursor molecule (pre-mir) and analysed global mRNA gene expression changes compared to transfection with a control oligonucleotide at 48 hours after transfection on a human Agilent 4×44 k microarray platform.
(§4) Microarray results were analysed both on individual gene level as well as by biological pathway analysis using the “Panther Pathways Analysis” Tool that tests changes in gene expression for enrichment of specific biological pathways or cellular functions.
(§5) Endothelial cells were transfected with miR-100 precursor oligonucleotides. Total RNA was isolated after 48 h for microarray analysis of global gene expression.

The test system of data set [6] is VCAM-1. Nature of the data set: Agilent microarray after miR-100 overexpression in endothelial cells, VCAM-1. Format: cell-based, human. Conditions: 48 hours after transfection vs control oligonucleotide, FIG. 12. On the procedure:
as §3, §4, §5

Data set [7] deals with VCAM-1. In words: VCAM-1 mRNA expression in endothelial cells (Taqman PCR). Format: cell-based, human. Conditions: vs scrambled premiR control; FIG. 13. The method, then:
(§6) Human endothelial cells were transfected with premiR-100 and scrambled premiR control oligonucleotides. After RNA isolation, the relative expression rate of the mRNA of different adhesion molecules was measured using the Stem loop Taqman PCR (P value≦0.005).
On the technique in general: Real-time PCR tracks product formation cycle by cycle.

Data set [8] concerns ICAM-1. In words: ICAM-1 mRNA expression in endothelial cells (Taqman PCR). The class given is cell-based, human. Conditions: vs scrambled premiR control; FIG. 13. The method, then: as §6
Data set [9] concerns E-Selectin. In words: E-Selectin mRNA expression in endothelial cells (Taqman PCR). Conditions: vs scrambled premiR control; FIG. 13. The class given is cell-based, human. On the procedure: as §6
The subject of data set [10] is VCAM-1. In words: VCAM-1 protein expression in endothelial cells (Western blot). Format: cell-based, human. The method, then: (§7) MiRNA-100 was overexpressed in human endothelial cells followed by protein isolation. Using Western blots, the protein expression of VCAM-1, ICAM-1 and E-Selectin was determined. FIGS. 14A and B show the ratio between volume intensity of the protein-samples and the loading control (β-tubulin) for [A] the baseline expression and [B] the expression after 24 h TNF-α stimulation.
For orientation: Immunoblotting shows a protein as a band on a membrane.

For data set [11], the system named is ICAM-1. Nature of the data set: ICAM-1 protein expression in endothelial cells (Western blot). Format: cell-based, human. On the procedure:
as §7

For data set [12], the system named is E-Selectin. Nature of the data set: E-Selectin protein expression in endothelial cells (Western blot). The class given is cell-based, human. The method, then:
as §7

Another data set deals with HUVECs / human PBMCs. Nature of the data set: Leukocyte-HUVEC interaction under flow conditions (flow chamber). The class given is cell-based. Conditions: TNF-alpha 30 ng/ml for 24 h, flow 1 dyn/cm^2; FIG. 15. The method, then:
HUVECs were grown to confluence, transfected with either anti-miR-100 or pre-Mir-100 oligonucelotides or scrambled controls and stimulated with TNF-alpha 30 ng/ml for 24 h. Human PBMCs (HPBMCs) were obtained from buffy coats of healthy donors by Ficoll-Hypaque density gradient centrifugation. The flow chamber was assembled and placed onto an inverted microscope stage, and freshly isolated HPBMCs (1×10^6/ml) were perfused across the endothelial monolayers. In all experiments, leukocyte interactions were determined over 105 min at 1 dyn/cm^2. Cells interacting on the surface of the endothelium were visualized and recorded using phase-contrast microscopy.
To test if this change in expression results in a functional difference in leukocyte rolling and adhesion to the endothelial surface, the attachment of isolated peripheral blood mononuclear cells (PBMC) to transfected endothelial cells was investigated under physiologic flow conditions in a flow chamber apparatus.
A physiological venous blood flow (1 dynes/cm^2) was induced by a flow chamber apparatus and the number of rolling or adherent peripheral blood mononuclear cells (PBMCs) was counted.

The subject of data set [13] is cultured cancer cells (oral squamous cell carcinoma). The note with it: Henson et al. 2009; cited from earlier work.
Where [14] appears, read: after 24 h TNF-α stimulation, FIG. 14B.

The source of these data is patent US20140377324A1, “Pharmaceutical Composition Comprising miRNA-100 And Its Use In The Modulation of Blood Vessel Growth and Endothelial Inflammation” (Universitatsklinikum Freiburg, priority 2009, published 2014).

B1: pre-miR-100: synthetic miR-100 precursor molecule, SEQ ID No. 8, used to overexpress miR-100; processed to mature miRNA-100 (SEQ ID No: 9) (nucleic acid)
chain: CCUGUUGCCACAAACCCGUAGAUCCGAACUUGUGGUAUUAGUCCGCACAAGCUUGUAUCUAUAGGUAUGUGUCUGUUAGG
modifications: listed as RNA, chemistry not given here
Turning to B1, in the data set with miR-100, the “detectable miR-100 (relative miR-100 expression)” value is “strong increase in detectable miR-100”. The endothelial network formation entry with endothelial cells [1] is on record as “significant inhibitory effect”. In addition, in the data set on endothelial cells [2], the “endothelial sprouting (total sprout length)” value is “significant inhibitory effect”. Besides, the endothelial cell apoptosis entry in the data set on endothelial cells [3] is reported as “slight increase in endothelial cell apoptosis”. In addition, the “endothelial cell proliferation (DNA-synthesis rate)” value in the data set on endothelial cells [4] is listed as “significant attenuation of endothelial cell proliferation”. Besides, in data set [5], the “inhibitory effect on proliferation, smooth muscle cells compared with endothelial cells” value is recorded as “more pronounced in endothelial cells than in smooth muscle cells”. Moreover, the “mTOR-expression on both mRNA as well as protein level” value in the data set with mTOR was “significantly repressed”. The “mTOR (FRAP1) gene expression” value in the data set with mTOR (FRAP1-gene) is listed as “downregulated”. The “cell proliferation of HEK cells” value with HEK293 cells is reported as “anti-proliferative effect”. Moreover, in the data set on E-Selectin (SELE), the “E-Selectin (SELE) gene expression” value is “strong downregulation”. Moreover, the VCAM-1 gene expression result in the data set on VCAM-1 [6] is given as “strong downregulation”. Besides, the “VCAM-1 mRNA relative expression” value in the data set on VCAM-1 [7] was “decrease”. In the data set with ICAM-1 [8], the “ICAM-1 mRNA relative expression” value was “decrease”. In the data set with E-Selectin [9], the “E-Selectin mRNA relative expression” value is listed as “decrease”. In addition, the “VCAM-1 protein, upregulation after TNF-α stimulation” value in the data set with VCAM-1 [10] (setting [14]) is “blunts the upregulation in response to inflammatory stimuli”. Further, in the data set with VCAM-1 [10] (ratio to β-tubulin, FIG. 14A), the “VCAM-1 protein, baseline expression” value is given as “decreases baseline expression”. For the same molecule, the “ICAM-1 protein, upregulation after TNF-α stimulation” value in the data set on ICAM-1 [11] (setting [14]) is recorded as “blunts the upregulation in response to inflammatory stimuli”. The “ICAM-1 protein, baseline expression” value in the data set on ICAM-1 [11] (ratio to β-tubulin, FIG. 14A) is recorded as “decreases baseline expression”. Further, the “E-Selectin protein, upregulation after TNF-α stimulation” value in the data set with E-Selectin [12] (setting [14]) is listed as “blunts the upregulation in response to inflammatory stimuli”. In the data set with E-Selectin [12] (ratio to β-tubulin), the “E-Selectin protein, baseline expression” value is reported as “decreases baseline expression”. Further, in the data set on HUVECs / human PBMCs, the “leukocyte (PBMC) adhesion to transfected endothelial cells” value is given as “significantly attenuates leukocyte adhesion”. For the same molecule, the cell proliferation entry in data set [13] is on record as “significantly reduced cell proliferation”.
